Experimental findings from paper PMC3575483 are described below.

A word on the stoichiometry N: it is the number of molecules, sites or subunits per partner or assembly.

The target in the assay is Purified native (non-tagged) D. radiodurans DR1245 protein (D. radiodurans). Nature of the assay: SEC; Sephacryl S-300 16/60 HR gel filtration column of purified native DR1245. On the technique in general: In gel filtration, larger molecules generally elute earlier.

The substance “Purified native (non-tagged) D. radiodurans DR1245 protein (natural protein)” gave a stoichiometry N of 2.
